Reference: doi:10.1101/2024.05.21.594841 (bioRxiv, 2024)

Key:
Assay in all cases: split reporter
Mpd1p = biological target: T1, Mpd1p (S. cerevisiae, UniProt Q12404 22-318)
T1 sequence: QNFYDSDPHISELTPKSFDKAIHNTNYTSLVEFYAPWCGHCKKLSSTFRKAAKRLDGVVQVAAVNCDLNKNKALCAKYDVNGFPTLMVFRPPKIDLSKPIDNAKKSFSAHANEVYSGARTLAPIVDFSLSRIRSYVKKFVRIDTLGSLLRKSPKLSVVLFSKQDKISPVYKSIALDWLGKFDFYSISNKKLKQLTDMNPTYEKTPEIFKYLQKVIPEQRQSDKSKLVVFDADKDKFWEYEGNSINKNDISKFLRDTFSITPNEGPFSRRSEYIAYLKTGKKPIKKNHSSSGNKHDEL

Mpd2p = biological target: T2, Mpd2p (S. cerevisiae, UniProt Q99316 23-277)
T2 sequence: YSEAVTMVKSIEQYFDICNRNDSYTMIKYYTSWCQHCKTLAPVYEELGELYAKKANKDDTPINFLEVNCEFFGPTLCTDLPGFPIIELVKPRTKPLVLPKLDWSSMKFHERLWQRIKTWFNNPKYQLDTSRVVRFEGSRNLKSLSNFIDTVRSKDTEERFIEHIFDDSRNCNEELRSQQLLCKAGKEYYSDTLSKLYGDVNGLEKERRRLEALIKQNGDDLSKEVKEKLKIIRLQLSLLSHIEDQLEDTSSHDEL

Sil1p = biological target: T3, Sil1p (S. cerevisiae, UniProt Q08199 20-421)
T3 sequence: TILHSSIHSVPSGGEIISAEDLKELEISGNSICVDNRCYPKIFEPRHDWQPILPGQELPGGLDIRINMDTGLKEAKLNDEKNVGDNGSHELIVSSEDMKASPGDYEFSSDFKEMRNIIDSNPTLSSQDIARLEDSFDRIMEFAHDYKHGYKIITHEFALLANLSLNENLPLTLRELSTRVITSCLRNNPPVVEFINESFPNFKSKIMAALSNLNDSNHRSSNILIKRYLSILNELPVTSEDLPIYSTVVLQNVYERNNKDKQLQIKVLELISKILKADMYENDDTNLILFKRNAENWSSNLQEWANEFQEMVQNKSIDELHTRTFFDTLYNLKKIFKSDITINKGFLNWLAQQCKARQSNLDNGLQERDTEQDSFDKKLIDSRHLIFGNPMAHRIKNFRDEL

Sec20p = biological target: T4, Sec20p (S. cerevisiae, UniProt P28791 1-383)
T4 sequence: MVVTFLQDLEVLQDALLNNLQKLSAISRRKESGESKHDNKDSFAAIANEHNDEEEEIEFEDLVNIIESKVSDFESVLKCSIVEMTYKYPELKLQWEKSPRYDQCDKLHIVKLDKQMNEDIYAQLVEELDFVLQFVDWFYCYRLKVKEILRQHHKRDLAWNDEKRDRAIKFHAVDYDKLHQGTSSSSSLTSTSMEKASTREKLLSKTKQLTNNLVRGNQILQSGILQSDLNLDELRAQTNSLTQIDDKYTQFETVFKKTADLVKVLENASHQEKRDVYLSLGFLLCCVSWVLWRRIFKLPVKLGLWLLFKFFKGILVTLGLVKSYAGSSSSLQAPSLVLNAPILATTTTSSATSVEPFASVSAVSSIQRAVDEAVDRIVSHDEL

Kar2p = Kar2p (S. cerevisiae, UniProt P16474 43-682)
Cpr5p = Cpr5p (S. cerevisiae, UniProt P35176 23-225)
Eug1p = biological target: T5, Eug1p (S. cerevisiae, UniProt P32474 30-517)
T5 sequence: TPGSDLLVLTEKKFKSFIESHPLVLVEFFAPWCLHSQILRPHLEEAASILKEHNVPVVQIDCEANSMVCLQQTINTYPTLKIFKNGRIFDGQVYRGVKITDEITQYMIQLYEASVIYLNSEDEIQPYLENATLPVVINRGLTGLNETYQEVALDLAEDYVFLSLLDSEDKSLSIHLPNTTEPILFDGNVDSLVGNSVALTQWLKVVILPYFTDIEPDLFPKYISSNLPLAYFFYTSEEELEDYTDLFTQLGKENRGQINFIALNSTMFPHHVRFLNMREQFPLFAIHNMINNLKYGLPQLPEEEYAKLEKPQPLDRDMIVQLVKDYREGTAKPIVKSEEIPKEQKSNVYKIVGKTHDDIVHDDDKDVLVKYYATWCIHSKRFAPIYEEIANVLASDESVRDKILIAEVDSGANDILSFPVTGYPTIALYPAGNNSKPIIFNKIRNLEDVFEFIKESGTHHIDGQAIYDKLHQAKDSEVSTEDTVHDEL

Chain of Cpr5p (P35176 23-225): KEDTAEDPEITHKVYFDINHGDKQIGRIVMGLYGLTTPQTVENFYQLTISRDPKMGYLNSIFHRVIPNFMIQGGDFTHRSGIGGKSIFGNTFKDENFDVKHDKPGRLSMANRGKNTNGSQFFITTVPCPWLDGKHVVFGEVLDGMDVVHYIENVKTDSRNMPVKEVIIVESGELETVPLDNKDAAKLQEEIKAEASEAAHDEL
Chain of Kar2p (P16474 43-682): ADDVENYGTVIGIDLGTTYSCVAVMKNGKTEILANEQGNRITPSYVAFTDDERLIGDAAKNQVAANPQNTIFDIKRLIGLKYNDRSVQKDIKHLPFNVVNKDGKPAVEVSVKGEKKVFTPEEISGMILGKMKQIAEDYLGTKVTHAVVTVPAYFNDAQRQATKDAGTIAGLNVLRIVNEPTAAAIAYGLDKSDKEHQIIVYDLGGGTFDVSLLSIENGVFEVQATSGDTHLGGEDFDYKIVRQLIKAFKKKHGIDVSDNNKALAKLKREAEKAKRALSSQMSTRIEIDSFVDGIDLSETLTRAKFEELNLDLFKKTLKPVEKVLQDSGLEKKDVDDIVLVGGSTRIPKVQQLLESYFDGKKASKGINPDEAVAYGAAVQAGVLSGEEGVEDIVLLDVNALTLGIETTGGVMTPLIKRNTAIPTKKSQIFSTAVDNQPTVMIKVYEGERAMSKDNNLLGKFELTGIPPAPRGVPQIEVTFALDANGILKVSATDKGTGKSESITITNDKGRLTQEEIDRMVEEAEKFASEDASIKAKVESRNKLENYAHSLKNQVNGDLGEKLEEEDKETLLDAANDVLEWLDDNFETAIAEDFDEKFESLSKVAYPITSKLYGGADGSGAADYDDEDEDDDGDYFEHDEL

B1: Lhs1p (natural protein)
chain: AVLGVDYGQQNIKAIVVSPQAPLELVLTPEAKRKEISGLSIKRLPGYGKDDPNGIERIYGSAVGSLATRFPQNTLLHLKPLLGKSLEDETTVTLYSKQHPGLEMVSTNRSTIAFLVDNVEYPLEELVAMNVQEIANRANSLLKDRDARTEDFVNKMSFTIPDFFDQHQRKALLDASSITTGIEETYLVSEGMSVAVNFVLKQRQFPPGEQQHYIVYDMGSGSIKASMFSILQPEDTTQPVTIEFEGYGYNPHLGGAKFTMDIGSLIENKFLETHPAIRTDELHANPKALAKINQAAEKAKLILSANSEASINIESLINDIDFRTSITRQEFEEFIADSLLDIVKPINDAVTKQFGGYGTNLPEINGVILAGGSSRIPIVQDQLIKLVSEEKVLRNVNADESAVNGVVMRGIKLSNSFKTKPLNVVDRSVNTYSFKLSNESELYDVFTRGSAYPNKTSILTNTTDSIPNNFTIDLFENGKLFETITVNSGAIKNSYSSDKCSSGVAYNITFDLSSDRLFSIQEVNCICQSENDIGNSKQIKNKGSRLAFTSEDVEIKRLSPSERSRLHEHIKLLDKQDKERFQFQENLNVLESNLYDARNLLMDDEVMQNGPKSQVEELSEMVKVYLDWLEDASFDTDPEDIVSRIREIGILKKKIELYMDSAKEPLNSQQFKGMLEEGHKLLQAIETHKNTVEEFLSQFETEFADTIDNVREEFKKIKQPAYVSKALSTWEETLTSFKNSISEIEKFLAKNLFGEDLREHLFEIKLQFDMYRTKLEEKLRLIKSGDESRLNEIKKLHLRNFRLQKRKEEKLKRKLEQEKSRNNNETESTVINSADDKTTIVNDKTTESNPSSEEDILHDEL
B1 was tested, and the normalized interacting score (Mpd1p) was 18%, the normalized interacting score (Mpd2p) was > 40% and the normalized interacting score (Sil1p) was 93%. For the same binder, the normalized interacting score (Sec20p) was 20%, the normalized interacting score (Kar2p) was 93% and the normalized interacting score (Cpr5p) was > 40%. The normalized interacting score (Eug1p) was > 40%.
